“And” between values parts separate entries of the source, which are not always exact repeats. Equal entries are not always repeated.

Data set [1] concerns the molecule itself. The data set can be described thus: negative-stain electron microscopy.
Data set [2] deals with the molecule itself. The experiment in a line: cross-linking.

B1: Schmallenberg virus (SBV) nucleocapsid (N) protein (natural protein)
chain: MSSQFIFEDVPQRNAATFNPEVGYVAFIGKYGQQLNFGVARVFFLNQKKAKMVLHKTAQPSVDLTFGGVKFTVVNNHFPQYVSNPVPDNAITLHRMSGYLARWIADTCKASVLKLAEASAQIVMPLAEVKGCTWADGYTMYLGFAPGAEMFLDAFDFYPLVIEMHRVLKDNMDVNFMKKVLRQRYGTMTAEEWMTQKITEIKAAFNSVGQLAWAKSGFSPAARTFLQQFGINI
The term stoichiometry N denotes the number of molecules, sites or subunits per partner or assembly. Consider B1, for which the “stoichiometry N” value in data set [1] is 4 and 5; in data set [2], 3.

Source of the values: article PMC3708532 (RNA, 2013).
